# In patent US20100166746A1 (published 2010):
# B1: 3F2 anti-EphA2 antibody (antibody, V domains shown)
# VH: EVQLVESGGGVVRPGGSLRLSCAASGFTVSDYSMNWVRQAPGKGLEWIGFIRNKANAYTTEYSASVKGRFTISRDDSKNTLYLQMNSLKTEDTAVYYCTTYPRYHAMDSWGQGTMVTVSS
# VL: AIQLTQSPSSLSASVGDRVTITCRASQSISNNLHWYLQKPGQSPQLLIYYGFQSISGVPSRFSGSGSGTDFTLTISSLQPEDFATYYCQQANSWPLTFGGGTKLEIK
# Target: T1, human EphA2 antigen (human, UniProt P29317 24-534, limits assumed)
# T1 construct: also called human EphA2 tumor antigen
# Assay: kinetic parameters, ratio to G5 reference
# T1 sequence (P29317 24-534 limits assumed): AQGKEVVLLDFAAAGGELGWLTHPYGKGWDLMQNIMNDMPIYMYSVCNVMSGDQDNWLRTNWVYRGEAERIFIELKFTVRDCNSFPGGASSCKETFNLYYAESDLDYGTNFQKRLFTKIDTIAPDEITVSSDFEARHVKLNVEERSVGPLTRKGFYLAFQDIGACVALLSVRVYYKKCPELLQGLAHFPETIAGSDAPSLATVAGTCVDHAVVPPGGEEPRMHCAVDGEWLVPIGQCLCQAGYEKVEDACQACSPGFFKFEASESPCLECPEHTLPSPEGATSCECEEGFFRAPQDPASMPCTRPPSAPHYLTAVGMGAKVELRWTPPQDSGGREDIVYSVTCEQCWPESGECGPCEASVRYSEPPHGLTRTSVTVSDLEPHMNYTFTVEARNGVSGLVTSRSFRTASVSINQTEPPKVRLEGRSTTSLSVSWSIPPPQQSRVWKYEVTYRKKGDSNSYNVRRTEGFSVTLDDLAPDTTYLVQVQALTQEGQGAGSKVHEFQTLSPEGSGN
binder,measurement,value
B1,fold faster Koff as compared to G5,~3 fold
same,fold faster Kon as compared to G5,~3.5 fold
